Type in all cases: physicochemical, human
A short description of data set [1]: DSC of free PDZ domain (thermal stability). As to conditions: 21 μM free PTPN3-PDZ, 18 μM PTPN4-PDZ, scan rate 200 °C/h, buffer A pH 7.5, repeated three times. On the procedure:
DSC experiments were carried out on a Microcal VP-capillary DSC (Malvern). 18, 21, 94 and 28 μM of PTPN4-PDZ, free PTPN3-PDZ, free PTPN3-PDZNext and PTPN3-PDZ complexed with peptides respectively were scanned from 10 °C to 90–100 °C with a scan rate of 200 °C/h. Large excess of peptides were used: about 600 μM for p38γ PBM, about 300 μM for HBVc PBM and HPV16E6 PBM and about 200 μM for HPV18E6 PBM. The buffer A was repeatedly scanned to ensure a stable buffer baseline. The buffer baseline was subtracted from the protein thermogram. Subsequent to normalization of the data by the protein concentration, a non-linear curve fitting algorithm was employed to obtain the Tm of the transition. All experiments were repeated three times.

Data set [2] can be described thus: AUC sedimentation velocity of free PTPN3 PDZ constructs. As to conditions: 20 °C. As for the experimental part: To estimate the oligomeric state of the PTPN3-PDZ construct, analytical ultracentrifugation (AUC) experiments were performed (Table 2). Three different concentrations of the protein were tested, 10, 25 and 70 μM. Only one single peak was detected at 10 μM with a sedimentation coefficient of 1.5S in agreement with a monomeric form of 10.5 kDa. At 25 μM, an additional peak was detected with a sedimentation coefficient of 2.6S corresponding to a dimeric form.
Sedimentation velocity experiments were carried out at 20 °C using a Beckman Coulter XL-I centrifuge equipped with a AN60-Ti rotor. Various protein and protein–peptide complex concentrations (protein concentrations ranging from 12.5 to 70 μM) samples were centrifuged for 17 h at 42000 rpm. Data were analyzed with SEDFIT 15.1 using a continuous size distribution c(S) model. The partial specific volume, the viscosity and the density of the samples were calculated with […]. The processed data were used to obtain values of sedimentation coefficients at null concentration in our experimental conditions (S0) and to get the standard sedimentation coefficients in water at 20 °C (S0,w,20) (Table 2).

The nature of data set [3]: Aggregation/stability followed by NMR HSQC spectra at 20 °C. On the procedure:
To evaluate the stability of PTPN3-PDZ, we performed differential scanning calorimetry (DSC) (Fig. 2C). […] As a comparison, we performed DSC on PTPN4-PDZ. We obtained an endothermic peak with a Tm of 47 °C (Fig. 2C). […] This thermal instability of the PTPN3-PDZ construct could be responsible for its aggregation previously detected by NMR.
The instability and tendency to oligomerize of PTPN3-PDZ made this construct unsuitable for crystallogenesis. To gain in stability and protein expression yield, we extended the N-terminal extremity of PTPN3-PDZ by 15-residues with its wild-type upstream sequence (PTPN3-PDZNext in Fig. 1). These extensions have been reported to provide structural stability to some PDZ containing proteins[13],[14]. The PTPN3-PDZ production yield was increased two-fold after extension from 0.9 mg to 1.8 mg of purified protein per liter of culture. The stability of PTPN3-PDZNext was then evaluated by NMR HSQC spectra recorded during a week at 20 °C. […] The additional peaks of the N-terminal extension residues fall in the spectral region characteristic of unfolded protein and no chemical shift differences between PTPN3-PDZNext and the shorter form are detected.
A series of ^1H, ^15N HSQC spectra was recorded over a week at 20 °C for a sample of PTPN3-PDZNext at 170 μM to follow the stability of the construct.

A short description of data set [4]: AUC sedimentation velocity of free PTPN3 PDZ constructs. The note with it: 20 °C. The source holds these as a separate data set.
Where [5] appears, read: PTPN3-PDZ 25 μM, two peaks are present.

The text below walks through data of paper PMC6520365, “Structural and functional characterization of the PDZ domain of the human phosphatase PTPN3 and its interaction with the human papillomavirus E6 oncoprotein” (Scientific Reports, 2019).

Marks after values point to notes of the source that are not given here.

B1: PTPN3-PDZ: recombinant PDZ domain of human PTPN3 expressed in E. coli (protein)
chain: GDSYLVLIRITPDEDGKFGFNLKGGVDQKMPLVVSRINPESPADTCIPKLNEGDQIVLINGRDISEHTHDQVVMFIKASRESHSRELALVIRRRAVRSFADFKSEDELNQLFPEAIFPMCPEGGDTLEGSMAQLKKGLESGTVLIQFEQLYRKKPGLAITFAKLPQNLDKNRYKDVLPYDTTRVLLQGNEDYINASYVNMEIPAANLVNKYIATQGPLPHTCAQFWQVVWDQKLSLIVMLTTLTERGRTKCHQYWPDPPDVMNHGGFHIQCQSEDCTIAYVSREMLVTNTQTGEEHTVTHLQYVAWPDHGVPDDSSDFLEFVNYVRSLRVDSEPVLVHCSAGIGRTGVLVTMETAMCLTERNLPIYPLDIVRKMRDQRAMMVQTSSQYKFVCEAILRVYEEGLVQMLDPS
modifications: left off: GST, N-terminal, cleaved
notes: recombinant PDZ domain of human PTPN3 expressed in E. coli
In the case of B1, the “Tm (thermal transition midpoint), free PDZ domain” value in data set [1] was found to be 41 °C. Moreover, the MW estimated in data set [2] (PTPN3-PDZ 10 μM, 42000 rpm) was 12.4 kDa; in data set [2] (setting [5]) it was 11.3–25.9^a kDa. The “Sed coef (S0,w,20)” value in data set [2] (PTPN3-PDZ 10 μM, standard coefficient in water at 20 °C) is on record as 1.5 S; in data set [2] (setting [5]), 1.5–2.6^a S. Moreover, the “oligomeric state of free PTPN3-PDZ” value in data set [2] (PTPN3-PDZ 70 μM) is reported as “higher oligomeric species could be detected”. For the same molecule, in data set [3] (after 10 h at 20 °C, data not shown), the “aggregation by HSQC peak intensity” value is listed as “significant loss of peak intensities”.

B2: PTPN3-PDZNext: PTPN3-PDZ extended at the N-terminal extremity by 15 residues with its wild-type upstream sequence (protein)
chain: STEDASQYYCDKNDNGDSYLVLIRITPDEDGKFGFNLKGGVDQKMPLVVSRINPESPADTCIPKLNEGDQIVLINGRDISEHTHDQVVMFIKASRESHSRELALVIRRRAVRSFADFKSEDELNQLFPEAIFPMCPEGGDTLEGSMAQLKKGLESGTVLIQFEQLYRKKPGLAITFAKLPQNLDKNRYKDVLPYDTTRVLLQGNEDYINASYVNMEIPAANLVNKYIATQGPLPHTCAQFWQVVWDQKLSLIVMLTTLTERGRTKCHQYWPDPPDVMNHGGFHIQCQSEDCTIAYVSREMLVTNTQTGEEHTVTHLQYVAWPDHGVPDDSSDFLEFVNYVRSLRVDSEPVLVHCSAGIGRTGVLVTMETAMCLTERNLPIYPLDIVRKMRDQRAMMVQTSSQYKFVCEAILRVYEEGLVQMLDPS
modifications: left off: GST, N-terminal, cleaved
As to B2, the results for the MW estimated in data set [4] (PTPN3-PDZNext 17.5 μM), in data set [4] (PTPN3-PDZNext 35 μM) and in data set [4] (PTPN3-PDZNext 70 μM) were 12.7 kDa, 12.5 kDa and 15 kDa, respectively. Further, the “Sed coef (S0,w,20)” value in data set [4] (PTPN3-PDZNext 17.5 μM) is given as 1.6 S; in data set [4] (PTPN3-PDZNext 35 μM), 1.7 S; in data set [4] (PTPN3-PDZNext 70 μM), 1.6 S. Besides, the “oligomeric state of free PTPN3-PDZNext” value in data set [4] (PTPN3-PDZNext between 17.5 μM and 70 μM) is “devoid of higher oligomeric species”. In data set [3] (HSQC recorded during a week at 20 °C, PTPN3-PDZNext 170 μM), the “aggregation by HSQC peak intensity” value is listed as “without any signs of aggregation”.
